Source: patent US9057734B2, “Optogenetic probes for measuring membrane potential” (President and Fellows of Harvard College, priority 2010, dated 2015)

Key:
HEK-293 cells = assay: Fluorescence versus membrane potential under whole-cell voltage clamp (ramp, step, frequency response, noise); format: cell-based, human
Method: Fluorescence of Arch 3 in HEK 293 cells was readily imaged in an inverted fluorescence microscope with red illumination (λ=640 nm, I=540 W/cm^2), a high numerical aperture objective, a Cy5 filter set, and an EMCCD camera. […] Cells not expressing Arch were not fluorescent.
HEK-293 cells were grown at 37° C., 5% CO2, in DMEM supplemented with 10% FBS and penicillin-streptomycin. Plasmids were transfected using LIPOFECTAMINE™ and PLUS reagent (Invitrogen) following the manufacturer's instructions, and assayed between 48-72 hours later. The day before recording, cells were re-plated onto glass-bottom dishes (MatTek) at a density of ˜5000 cells/cm^2.
The concentration of endogenous retinal in the HEK cells was not known, so the cells were supplemented with retinal by diluting stock retinal solutions (40 mM, DMSO) in growth medium to a final concentration of 5 μM, and then placing the cells back in the incubator for 1-3 hours. All imaging and electrophysiology were performed in Tyrode's buffer (containing, in mM: 125 NaCl, 2 KCl, 3 CaCl2, 1 MgCl2, 10 HEPES, 30 glucose pH 7.3, and adjusted to 305-310 mOsm with sucrose). Only HEK cells having reversal potentials between −10 and −40 mV were included in the analysis.
Simultaneous fluorescence and whole-cell patch clamp recordings were acquired on a home-built, inverted epifluorescence microscope at room temperature. A diode laser operating at 100 mW, 640 nm (CrystaLaser, DL638-100-O) provided wide-field illumination at an intensity typically between 500-2000 W/cm^2. To minimize background signal from out-of-focus debris, illumination was often performed in through-the-objective total internal reflection fluorescence (TIRF) mode. Fluorescence emission was collected using a 60×, 1.45 NA oil immersion objective (Olympus), and separated from scattered excitation using a 660-760 nm bandpass emission filter (Chroma). For fast imaging of dynamic fluorescence responses and action potentials, images were acquired on an Andor iXon^+ 860 camera operating at up to 2,000 frames/s (using a small region of interest and pixel binning). Slower images with higher spatial resolution were acquired on an Andor iXon^+ 897 EMCCD. Custom software written in LabView (National Instruments) was used to synchronize illumination, collection of images, recording of membrane potential and cell current, and application of electrical stimuli to the cell.
Filamented glass micropipettes (WPI) were pulled to a tip resistance of 3-10 MΩ, fire polished, and filled with internal solution (containing, in mM: 125 Potassium gluconate, 8 NaCl, 0.6 MgCl2, 0.1 CaCl2, 1 EGTA, 10 HEPES, 4 Mg-ATP, 0.4 Na-GTP, pH 7.3; adjusted to 295 mOsm with sucrose). The micropipettes were positioned with a Burleigh PCS 5000 micromanipulator. Whole-cell, voltage clamp recordings were acquired using an AxoPatch 200B amplifier (Molecular Devices), filtered at 2 kHz with the internal Bessel filter, and digitized with a National Instruments PCIE-6323 acquisition board at 10 kHz. Ambient 60 Hz noise was removed using a HumBug Noise Eliminator (AutoMate Scientific). For experiments requiring rapid modulation of transmembrane potential, series resistance and whole-cell capacitance were predicted to 95% and corrected to ˜50%. Electrical stimuli were generated using the PCIE-6323 acquisition board and sent to the AXOPATCH™, which then applied these signals in either constant current or constant voltage mode.
To measure fluorescence as a function of membrane potential, a triangle wave was applied, with amplitude from −150 mV to +150 mV and period 12 s, with video recording at 100 ms per frame. A pixel weight matrix was calculated according to Eq. S2 and applied to the movie images to generate a fluorescence number for each frame. These fluorescence values were divided by their minimum value (at V=−150 mV). The result is plotted as a function of Vin FIGS. 7 and 8. […]

HEK cells = assay: Photocurrents under 640 nm illumination in voltage-clamped cells; format: cell-based, human
Method: Measurements of photocurrents were performed on HEK cells held in voltage clamp at 0 mV while being exposed to brief (200 ms) pulses of illumination at 640 nm at an intensity of 1800 W/cm^2.

B1: Arch 3 WT: Archaerhodopsin 3, light-driven proton pump from Halorubrum sodomense, used as fluorescent voltage indicator (protein)
chain: MDPIALQAGYDLLGDGRPETLWLGIGTLLMLIGTFYFLVRGWGVTDKDAREYYAVTILVPGIASAAYLSMFFGIGLTEVTVGGEMLDIYYARYADWLFTTPLLLLDLALLAKVDRVTIGTLVGVDALMIVTGLIGALSHTAIARYSWWLFSTICMIVVLYFLATSLRSAAKERGPEVASTFNTLTALVLVLWTAYPILWIIGTEGAGVVGLGIETLLFMVLDVTAKVGFGFILLRSRAILGDTEAPEPSAGADVSAAD
modifications: Halorubrum sodomense
notes: Archaerhodopsin 3, light-driven proton pump from Halorubrum sodomense, used as fluorescent voltage indicator
voltage steps resolved/reported (HEK-293 cells; HEK cells): 10 mV
photobleaching (HEK-293 cells; continuous 10-minute exposure, 640 nm, 540 W/cm2): 17%
fluorescence oscillation amplitude retained relative to low-frequency amplitude (HEK-293 cells; sinusoidal membrane potential, f=1 kHz): 55%
response time to a step in membrane potential (HEK-293 cells; steps between −70 mV and +30 mV): < 0.5 ms
response of fluorescence to a step in membrane potential, time (HEK-293 cells; time resolution of imaging system, rising and falling edge): ≤ 500 μs
increase of fluorescence (fold/factor) between −150 mV and +150 mV (HEK-293 cells; whole-cell voltage clamp): 2
photocurrents induced by imaging laser (HEK cells; 640 nm, HEK cells): 10-20 pA
photocurrent / photoinduced proton pumping (HEK cells; illumination at 640 nm): retains the photoinduced proton-pumping
